Measured values published in the supplement of paper PMC11246515.
± gives the standard deviation of the averaged measurements.

Test: total protein half-life in vivo (active degradation + dilution); higher = more stable protein
[1] = E. coli NCM3722 delta-clpP, growth: N-lim chemostat, doubling time 6 h
[2] = E. coli NCM3722 delta-hslV, growth: N-lim chemostat, doubling time 6 h
[3] = E. coli NCM3722 delta-lon, growth: N-lim chemostat, doubling time 6 h
[4] = E. coli NCM3722 delta-smpB, growth: N-lim chemostat, doubling time 6 h
[5] = wild type E. coli NCM3722, growth: C-lim chemostat, doubling time 3 h
[6] = wild type E. coli NCM3722, growth: C-lim chemostat, doubling time 12 h
[7] = wild type E. coli NCM3722, growth: N-lim chemostat, doubling time 12 h
[8] = wild type E. coli NCM3722, growth: P-lim chemostat, doubling time 12 h
[9] = E. coli NCM3722 delta-clpP delta-lon delta-hslV, growth: N-lim chemostat, doubling time 6 h
[10] = wild type E. coli NCM3722, growth: C-lim chemostat, doubling time 6 h
[11] = wild type E. coli NCM3722, growth: N-lim chemostat, doubling time 6 h
[12] = wild type E. coli NCM3722, growth: P-lim chemostat, doubling time 6 h

Sequence | total protein half-life in vivo [1] | total protein half-life in vivo [2] | total protein half-life in vivo [3] | total protein half-life in vivo [4] | total protein half-life in vivo [5] | total protein half-life in vivo [6] | total protein half-life in vivo [7] | total protein half-life in vivo [8] | total protein half-life in vivo [9] | total protein half-life in vivo [10] | total protein half-life in vivo [11] | total protein half-life in vivo [12]
MLKRFFITGTDTSVGKTVVSRALLQALASQGKTVAGYKPVAKGSKETPEGLRNKDALVLQSVSTIELPYEAVNPIALSEEESSVAHSCPINYTLISNGLANLTEKVDHVVVEGTGGWRSLMNDLRPLSEWVVQEQLPVLMVVGIQEGCINHALLTAQAIANDGLPLIGWVANRINPGLAHYAEIIDVLGKKLPAPLIGELPYLPRAEQRELGQYIRLAMLRSVLAVDRVTV [P0A6E9] | 5.16 ± 1 h | 2 ± 0.11 h | 2.48 h | 2.11 ± 0.046 h | 2.11 ± 0.37 h | 4.99 ± 0.23 h | 3.5 ± 0.4 h | 5.74 ± 0.84 h |  |  |  | 
MRKFTLNIFTLSLGLAVMPMVEAAPTAQQQLLEQVRLGEATHREDLVQQSLYRLELIDPNNPDVVAARFRSLLRQGDIDGAQKQLDRLSQLAPSSNAYKSSRTTMLLSTPDGRQALQQARLQATTGHAEEAVASYNKLFNGAPPEGDIAVEYWSTVAKIPARRGEAINQLKRINADAPGNTGLQNNLALLLFSSDRRDEGFAVLEQMAKSNAGREGASKIWYGQIKDMPVSDASVSALKKYLSIFSDGDSVAAAQSQLAEQQKQLADPAFRARAQGLAAVDSGMAGKAIPELQQAVRANPKDSEALGALGQAYSQKGDRANAVANLEKALALDPHSSNNDKWNSLLKVNRYWLAIQQGDAALKANNPDRAERLFQQARNVDNTDSYAVLGLGDVAMARKDYPAAERYYQQTLRMDSGNTNAVRGLANIYRQQSPEKAEAFIASLSASQRRSIDDIERSLQNDRLAQQAEALENQGKWAQAAALQRQRLALDPGSVWITYRLSQDLWQAGQRSQADTLMRNLAQQKSNDPEQVYAYGLYLSGHDQDRAALAHINSLPRAQWNSNIQELVNRLQSDQVLETANRLRESGKEAEAEAMLRQQPPSTRIDLTLADWAQQRRDYTAARAAYQNVLTREPANADAILGLTEVDIAAGDKAAARSQLAKLPATDNASLNTQRRVALAQAQLGDTAAAQRTFNKLIPQAKSQPPSMESAMVLRDGAKFEAQAGDPTQALETYKDAMVASGVTTTRPQDNDTFTRLTRNDEKDDWLKRGVRSDAADLYRQQDLNVTLEHDYWGSSGTGGYSDLKAHTTMLQVDAPYSDGRMFFRSDFVNMNVGSFSTNADGKWDDNWGTCTLQDCSGNRSQSDSGASVAVGWRNDVWSWDIGTTPMGFNVVDVVGGISYSDDIGPLGYTVNAHRRPISSSLLAFGGQKDSPSNTGKKWGGVRADGVGLSLSYDKGEANGVWASLSGDQLTGKNVEDNWRVRWMTGYYYKVINQNNRRVTIGLNNMIWHYDKDLSGYSLGQGGYYSPQEYLSFAIPVMWRERTENWSWELGASGSWSHSRTKTMPRYPLMNLIPTDWQEEAARQSNDGGSSQGFGYTARALLERRVTSNWFVGTAIDIQQAKDYAPSHFLLYVRYSAAGWQGDMDLPPQPLIPYADW | 6.7 ± 0.36 h | 6.74 ± 0.87 h | 6.13 ± 0.61 h | 5.66 ± 0.14 h | 3.2 ± 0.16 h | 11.2 ± 1.1 h | 13.8 ± 0.91 h | 13.3 ± 0.38 h | 6.16 ± 0.12 h | 6.39 ± 0.4 h | 6.4455 ± 0.00019 h | 6.24 ± 0.29 h
MTTLAIDIGGTKLAAALIGADGQIRDRRELPTPASQTPEALRDALSALVSPLQAHAQRVAIASTGIIRDGSLLALNPHNLGGLLHFPLVKTLEQLTNLPTIAINDAQAAAWAEFQALDGDITDMVFITVSTGVGGGVVSGCKLLTGPGGLAGHIGHTLADPHGPVCGCGRTGCVEAIASGRGIAAAAQGELAGADAKTIFTRAGQGDEQAQQLIHRSARTLARLIADIKATTDCQCVVVGGSVGLAEGYLALVETYLAQEPAAFHVDLLAAHYRHDAGLLGAALLAQGEKL | 4.78 ± 0.069 h | 4.19 ± 0.69 h | 3.56 ± 1.9 h | 4.85 ± 0.36 h | 2.57 ± 0.17 h | 9.07 ± 0.36 h | 5.13 ± 2.2 h | 10.5 ± 0.22 h | 4.69 ± 0.65 h | 5 ± 0.45 h | 5.02 ± 0.21 h | 
MQIIFGEKCVSLLRLFFAAVLMLWCAQTAAYSGQCHTTQGNPYIGVNFGVKTLEEEANTAGVVKDKFYQWNESNDYYVSCDCDKDNVRSGRWAFAADSPLVYLGDNWYKINDYLAAKVLLQVKGSSPTAVPFENVGTGGDTRWHICDPGGQRLGGQGASGNSGSFSLKILQPFVGSVVIPPMALARLYECYNIPAGDSCTTTGTPVLVYYLSGTINSLGSCSVNAGETIEVDLGDVFAANFRVVGHKPLGARTAELAIPVRCNTGNAGLVNVNLSLTATTDPSYPQAIKTSRPGVGVVVTDSQNNIISPAGGTLPLSIPDDADSIARMNVYPVSTTGVPPETGRFEATATVRINFD | 4.19 h | 5.902 ± 0.037 h | 6.21 ± 1.1 h | 5.24 ± 0.2 h |  | 9.76 h | 11.6 ± 0.54 h | 12 ± 1.1 h | 5.52 ± 2.1 h | 5.54 ± 0.6 h | 7.57 h | 6 h
MKISDGNWLIQPGLNLIHPLQVFEVEQQDNEMVVYAAPRDVRERTWQLDTPLFTLRFFSPQEGIVGVRIEHFQGALNNGPHYPLNILQDVKVTIENTERYAEFKSGNLSARVSKGEFWSLDFLRNGERITGSQVKNNGYVQDTNNQRNYMFERLDLGVGETVYGLGERFTALVRNGQTVETWNRDGGTSTEQAYKNIPFYMTNRGYGVLVNHPQCVSFEVGSEKVSKVQFSVESEYLEYFVIDGPTPKAVLDRYTRFTGRPALPPAWSFGLWLTTSFTTNYDEATVNSFIDGMAERNLPLHVFHFDCFWMKAFQWCDFEWDPLTFPDPEGMIRRLKAKGLKICVWINPYIGQKSPVFKELQEKGYLLKRPDGSLWQWDKWQPGLAIYDFTNPDACKWYADKLKGLVAMGVDCFKTDFGERIPTDVQWFDGSDPQKMHNHYAYIYNELVWNVLKDTVGEEEAVLFARSASVGAQKFPVHWGGDCYANYESMAESLRGGLSIGLSGFGFWSHDIGGFENTAPAHVYKRWCAFGLLSSHSRLHGSKSYRVPWAYDDESCDVVRFFTQLKCRMMPYLYREAARANARGTPMMRAMMMEFPDDPACDYLDRQYMLGDNVMVAPVFTEAGDVQFYLPEGRWTHLWHNDELDGSRWHKQQHGFLSLPVYVRDNTLLALGNNDQRPDYVWHEGTAFHLFNLQDGHEAVCEVPAADGSVIFTLKAARTGNTITVTGAGEAKNWTLCLRNVVKVNGLQDGSQAESEQGLVVKPQGNALTITL | 5.9 ± 0.59 h | 5.652 ± 0.053 h |  | 5.11 ± 0.41 h | 3.394 ± 0.019 h | 13 ± 0.71 h | 12.7 ± 0.22 h | 11.5 ± 2.9 h | 5.8 h | 6.93 ± 0.64 h | 6.27 h | 
MDFSLTEEQELLLASIRELITTNFPEEYFRTCDQNGTYPREFMRALADNGISMLGVPEEFGGIPADYVTQMLALMEVSKCGAPAFLITNGQCIHSMRRFGSAEQLRKTAESTLETGDPAYALALTEPGAGSDNNSATTTYTRKNGKVYINGQKTFITGAKEYPYMLVLARDPQPKDPKKAFTLWWVDSSKPGIKINPLHKIGWHMLSTCEVYLDNVEVEESDMVGEEGMGFLNVMYNFEMERLINAARSTGFAECAFEDAARYANQRIAFGKPIGHNQMIQEKLALMAIKIDNMRNMVLKVAWQADQHQSLRTSAALAKLYCARTAMEVIDDAIQIMGGLGYTDEARVSRFWRDVRCERIGGGTDEIMIYVAGRQILKDYQNK [P0A9U8] |  | 1.41 h |  | 1.03 h | 2.23 h | 2.25 h | 2.165 ± 0.02 h | 2.42 h | 6.36 ± 0.59 h | > 8 h |  | 0.772 h
